For test [1], the target named is hFGFR2b-Fc (Kactus, Catalog #FGR-HM2BB) (human) (UniProt P21802). As to the kind of experiment: epitope binning ELISA: competing Ab FPA144 in solution with biotin-hFGFR2b-Fc; competitor (column, coated) HC18. In general terms: ELISA stands for enzyme-linked immunosorbent assay.
Test [2] has the same target. In words: competition ELISA: inhibition of biotin-FGF10 binding to coated hFGFR2b-Fc.
Test [3] has the same target. In words: competition ELISA: inhibition of FGF7-his binding to coated hFGFR2b-Fc.
The target is the same in test [4]. As to the kind of experiment: epitope binning ELISA: competing Ab FPA144 in solution with biotin-hFGFR2b-Fc; competitor (column, coated) FPA144.
Test [5] concerns the target human FGFR2b expressed on cells (hFGFR2b-expressing CHOK1 cells; Ba/F3 cells expressing full-length human FGFR2b) (human) (UniProt P21802). As to the kind of experiment: flow cytometry on CHOK1 cells expressing hFGFR2b, detection with APC anti-human IgG Fc. (In general: A flow cytometer gives signals particle by particle.)
Test [6] addresses human FGFR2c expressed on CHOK1 cells (human) (UniProt P21802). In words: flow cytometry on CHOK1 cells expressing hFGFR2c, detection with APC anti-human IgG Fc.

Sequence of hFGFR2b-Fc (Kactus, Catalog #FGR-HM2BB) (human) (P21802 other isoform, or with tags, fused parts or gaps): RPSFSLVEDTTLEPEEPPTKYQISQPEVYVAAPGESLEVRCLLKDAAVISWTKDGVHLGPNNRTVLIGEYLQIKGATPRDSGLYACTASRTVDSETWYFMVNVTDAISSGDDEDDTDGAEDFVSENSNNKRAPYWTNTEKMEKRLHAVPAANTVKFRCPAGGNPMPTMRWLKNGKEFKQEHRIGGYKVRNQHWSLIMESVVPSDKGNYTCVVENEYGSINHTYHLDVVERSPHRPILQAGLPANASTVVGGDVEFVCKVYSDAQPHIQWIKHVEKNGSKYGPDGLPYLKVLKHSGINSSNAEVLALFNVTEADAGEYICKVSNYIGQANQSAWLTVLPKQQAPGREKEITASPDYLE
Sequence of human FGFR2c expressed on CHOK1 cells (human) (P21802 22-821): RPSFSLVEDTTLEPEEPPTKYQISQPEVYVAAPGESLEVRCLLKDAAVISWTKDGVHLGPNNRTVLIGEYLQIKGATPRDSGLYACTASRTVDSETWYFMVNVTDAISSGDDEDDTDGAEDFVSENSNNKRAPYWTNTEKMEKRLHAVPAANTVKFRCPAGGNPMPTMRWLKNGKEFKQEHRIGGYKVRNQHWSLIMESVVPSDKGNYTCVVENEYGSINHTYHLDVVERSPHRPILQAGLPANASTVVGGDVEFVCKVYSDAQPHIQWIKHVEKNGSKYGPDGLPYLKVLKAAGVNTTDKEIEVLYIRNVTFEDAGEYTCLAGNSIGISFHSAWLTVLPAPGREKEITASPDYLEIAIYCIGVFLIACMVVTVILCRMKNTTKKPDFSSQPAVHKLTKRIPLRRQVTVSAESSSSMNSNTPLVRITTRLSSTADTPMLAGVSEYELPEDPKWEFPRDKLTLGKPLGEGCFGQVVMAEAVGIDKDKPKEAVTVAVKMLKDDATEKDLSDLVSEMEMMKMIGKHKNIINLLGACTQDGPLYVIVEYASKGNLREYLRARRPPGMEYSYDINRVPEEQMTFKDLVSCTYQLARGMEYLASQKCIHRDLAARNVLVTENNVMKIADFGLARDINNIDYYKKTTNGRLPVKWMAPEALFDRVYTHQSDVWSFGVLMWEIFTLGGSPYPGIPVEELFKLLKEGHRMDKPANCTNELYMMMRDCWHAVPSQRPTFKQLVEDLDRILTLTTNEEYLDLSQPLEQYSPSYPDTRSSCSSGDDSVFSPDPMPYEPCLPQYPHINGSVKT
Sequence of human FGFR2b expressed on cells (hFGFR2b-expressing CHOK1 cells; Ba/F3 cells expressing full-length human FGFR2b) (human) (P21802 other isoform, or with tags, fused parts or gaps): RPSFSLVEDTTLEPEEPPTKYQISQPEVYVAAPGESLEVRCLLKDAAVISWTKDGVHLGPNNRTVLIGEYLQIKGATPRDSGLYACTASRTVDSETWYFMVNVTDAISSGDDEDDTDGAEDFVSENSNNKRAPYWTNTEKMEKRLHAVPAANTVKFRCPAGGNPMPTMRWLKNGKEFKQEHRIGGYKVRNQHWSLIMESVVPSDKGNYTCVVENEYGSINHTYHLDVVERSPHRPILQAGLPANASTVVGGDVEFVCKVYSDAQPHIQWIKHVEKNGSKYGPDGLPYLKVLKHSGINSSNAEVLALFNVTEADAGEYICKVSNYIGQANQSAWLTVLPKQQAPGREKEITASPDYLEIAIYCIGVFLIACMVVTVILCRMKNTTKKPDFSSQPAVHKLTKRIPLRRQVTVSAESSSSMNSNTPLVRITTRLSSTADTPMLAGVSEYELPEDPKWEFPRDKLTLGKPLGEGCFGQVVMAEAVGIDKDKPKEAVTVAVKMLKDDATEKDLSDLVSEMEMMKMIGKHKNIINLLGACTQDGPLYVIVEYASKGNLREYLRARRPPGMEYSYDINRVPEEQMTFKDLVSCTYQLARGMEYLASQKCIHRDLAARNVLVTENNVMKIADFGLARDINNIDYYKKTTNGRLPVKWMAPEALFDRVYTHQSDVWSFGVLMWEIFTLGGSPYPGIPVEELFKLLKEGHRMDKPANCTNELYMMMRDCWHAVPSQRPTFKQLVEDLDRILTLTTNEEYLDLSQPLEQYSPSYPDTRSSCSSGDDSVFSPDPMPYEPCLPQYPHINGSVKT

B1: FPA144 (antibody, INN chains, looked up, V domains shown)
VH: QVQLVQSGAEVKKPGSSVKVSCKASGYIFTTYNVHWVRQAPGQGLEWIGSIYPDNGDTSYNQNFKGRATITADKSTSTAYMELSSLRSEDTAVYYCARGDFAYWGQGTLVTVSS
VL: DIQMTQSPSSLSASVGDRVTITCKASQGVSNDVAWYQQKPGKAPKLLIYSASYRYTGVPSRFSGSGSGTDFTFTISSLQPEDIATYYCQQHSTTPYTFGQGTKLEIK
As for B1, the percent competition (epitope binning; value not given) in test [1] and in test [4] was 98% each time. The IC50 (in general, the concentration that inhibits the measured activity by half) worked out at 6.65 nM in test [2] and 2.4 nM in test [3]. For the same molecule, the Inhibition (%) in test [2] and in test [3] was 100% in each case. Moreover, the ODmin in test [2] was determined as 0.496 OD; in test [3] it was 0.172 OD. Besides, in test [5], the EC50 (read off the curve) (usually the concentration giving half of the maximal effect) worked out at 0.2 nM.

B2: Aprutumab (antibody, INN chains, looked up, V domains shown)
VH: EVQLLESGGGLVQPGGSLRLSCAASGFTFSSYAMSWVRQAPGKGLEWVSAISGSGTSTYYADSVKGRFTISRDNSKNTLYLQMNSLRAEDTAVYYCARVRYNWNHGDWFDPWGQGTLVTVSS
VL: QSVLTQPPSASGTPGQRVTISCSGSSSNIGNNYVSWYQQLPGTAPKLLIYENYNRPAGVPDRFSGSKSGTSASLAISGLRSEDEADYYCSSWDDSLNYWVFGGGTKLTVL
Molecule B2 had an EC50 (read off the curve) in test [6] of 1 nM.

The values above are taken from patent US20260242487A1.
